From publication PMC9163039 come the findings set out here.

For this assay, the target named is mRuby2-Tau (human Tau full length) (human) (UniProt P10636). In words: FRET or BRET; FLIM-FRET (clover donor lifetime) in living SH-SY5Y cells after hyperosmotic stress (sucrose); only pixels belonging to BAG2 condensates fitted. For orientation: BRET reads energy transfer from a luciferase to a nearby fluorophore.
Sequence of UniProt P10636 (P10636 2-758): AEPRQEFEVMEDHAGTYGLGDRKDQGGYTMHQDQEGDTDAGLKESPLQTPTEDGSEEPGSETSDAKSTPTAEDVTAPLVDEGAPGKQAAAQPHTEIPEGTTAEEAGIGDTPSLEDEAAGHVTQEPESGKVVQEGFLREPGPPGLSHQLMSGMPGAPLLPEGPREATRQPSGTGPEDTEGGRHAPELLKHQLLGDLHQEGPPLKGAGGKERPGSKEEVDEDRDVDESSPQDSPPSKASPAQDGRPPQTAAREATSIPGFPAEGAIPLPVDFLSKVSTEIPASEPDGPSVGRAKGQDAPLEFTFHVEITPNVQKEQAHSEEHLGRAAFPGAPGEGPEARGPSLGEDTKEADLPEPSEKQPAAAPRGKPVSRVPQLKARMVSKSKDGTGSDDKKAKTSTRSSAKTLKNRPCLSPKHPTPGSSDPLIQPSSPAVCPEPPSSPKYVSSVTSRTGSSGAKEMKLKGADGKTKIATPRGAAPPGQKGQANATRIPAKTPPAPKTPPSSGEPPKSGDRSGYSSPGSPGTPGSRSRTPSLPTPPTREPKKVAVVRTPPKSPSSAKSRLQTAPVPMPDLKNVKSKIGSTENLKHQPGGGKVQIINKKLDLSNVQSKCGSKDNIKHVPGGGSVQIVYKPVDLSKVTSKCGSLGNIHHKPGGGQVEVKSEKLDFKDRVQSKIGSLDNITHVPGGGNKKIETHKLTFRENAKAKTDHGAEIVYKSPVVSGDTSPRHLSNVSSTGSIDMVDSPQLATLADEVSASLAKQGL

On to “mClover2-BAG2 (Bcl2-associated athanogene 2, full length) (from UniProt O95816 1-211) (natural protein)”, for which the fluorescence lifetime of the donor (FLIM-FRET), pixels of BAG2 condensates after stress stood at 2.8 ns.
